{
  "source": "patent US20240209070A1",
  "about": "(LUNDQUIST INSTITUTE FOR BIOMEDICAL INNOVATION AT HARBOR …, published 2024)",
  "key": {"[1]": {"biological_target": "T1, recombinant CotH3 protein of Rhizopus delemar 99-880 (Flag-TEV-CotH3 made in S. cerevisiae) (Rhizopus delemar 99-880 (Rhizopus …, UniProt I1CFE1 18-579))", "T1 construct": "also called CotH3 antigen; rCotH3p", "T1 sequence": "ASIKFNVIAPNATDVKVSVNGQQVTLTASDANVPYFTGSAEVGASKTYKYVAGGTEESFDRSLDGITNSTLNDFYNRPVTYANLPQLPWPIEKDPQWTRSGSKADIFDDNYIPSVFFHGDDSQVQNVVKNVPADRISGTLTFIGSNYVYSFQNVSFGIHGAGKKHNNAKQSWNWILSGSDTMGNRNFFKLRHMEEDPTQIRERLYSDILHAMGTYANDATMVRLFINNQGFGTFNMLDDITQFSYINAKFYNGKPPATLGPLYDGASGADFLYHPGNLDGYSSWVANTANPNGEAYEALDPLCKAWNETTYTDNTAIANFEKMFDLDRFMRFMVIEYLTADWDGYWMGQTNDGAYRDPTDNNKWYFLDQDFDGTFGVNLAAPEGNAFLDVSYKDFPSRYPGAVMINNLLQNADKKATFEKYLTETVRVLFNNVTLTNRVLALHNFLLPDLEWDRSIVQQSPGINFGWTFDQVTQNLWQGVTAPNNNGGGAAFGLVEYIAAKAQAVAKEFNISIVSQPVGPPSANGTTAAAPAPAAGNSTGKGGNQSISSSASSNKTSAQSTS", "test": "BLI (Gator), antibody from culture medium on Protein G sensor"}, "[2]": {"biological_target": "T2, Rhizopus delemar (Rhizopus delemar)", "T2 construct": "native, on paraformaldehyde-fixed spores; also called cell-surface CotH antigen on Rhizopus delemar spores", "test": "flow cytometry on fixed Rhizopus delemar spores, 20 ug/ml antibody; blank 'Hu 2nd Only' median 565.83, mean 592.76"}, "[3]": {"biological_target": "T3, Rhizomucor (Rhizomucor (species not given))", "T3 construct": "native, on paraformaldehyde-fixed spores; also called cell-surface CotH antigen on Rhizomucor spores", "test": "flow cytometry on fixed Rhizomucor spores, 20 ug/ml antibody; blank 'Hu 2nd Only' median 257.20, mean 272.52"}, "[4]": {"biological_target": "T4, Mucor circinelloides (Mucor circinelloides)", "T4 construct": "native, on paraformaldehyde-fixed spores; also called cell-surface CotH antigen on Mucor circinelloides spores", "test": "flow cytometry on fixed Mucor circinelloides spores, 20 ug/ml antibody; blank 'Hu 2nd Only' median 990.21, mean 1062.19"}, "[5]": {"biological_target": "T5, Cunninghamella bertholletiae (Cunninghamella bertholletiae)", "T5 construct": "native, on paraformaldehyde-fixed spores; also called cell-surface CotH antigen on Cunninghamella bertholletiae spores", "test": "flow cytometry on fixed Cunninghamella bertholletiae spores, 20 ug/ml antibody; blank 'Hu 2nd Only' median 241.78, mean 250.81"}, "[6]": {"biological_target": "T1, recombinant CotH3 protein of Rhizopus …", "test": "BLI (Gator), antibody on Protein G sensor, CotH3 6.25-400 nM, 25 C", "description": "(§1) The purified preparations were then used to assess the affinity of each clone for the CotH3 antigen by biolayer interferometry using Gator system (ProbeLife). Under the assumption that the CotH3 antigen provided by Vitalex behaves as a normal soluble monomeric protein, a Protein G coated sensor probe (ProbeLife, catalog #160006) was loaded with the bivalent antibody test clone at a concentration of 5 μg/ml in ProbeLife's kinetic buffer (PBS pH 7.4, 0.02% BSA, 0.002% Tween-20, 0.005% NaN₃). […] All reactions were performed at 25° C. The values are chosen when three or more concentrations yield the same kinetic values."}, "[7]": {"biological_target": "T1, recombinant CotH3 protein of Rhizopus …", "test": "BLI (Gator), from the KD values of Table 5", "description": "as §1"}},
  "data": [
    {"binder": "humanized variant LC2:HC1 (antibody, V domains shown) VH: QVQLQESGPGLVKPSETLSLTCTVSGDSITSGYWSWIRQPPGKGLEWIGYIKYSGRTNYNPSLKSRVTISRDTSKNQFSLKLSSVTAADTAVYYCASRGYWGQGTLVTVSS VL: DIVMTQTPLSLSVTPGQPASISCKSSQSLLDSDGKTFLNWLLQKPGQSPQLLIYLVSKLDSGVPDRFSGSGSGTDFTLKISRVEAEDVGVYYCWQGTHFPHTFGQGTKVEIKR", "values": [
      {"measurement": "binding result", "setting": "[1]", "result": "no binding (tested: 30 nM CotH3)"}
    ]},
    {"binder": "humanized variant Grafted LC:HC1 (antibody, V domains shown) VH: QVQLQESGPGLVKPSETLSLTCTVSGDSITSGYWSWIRQPPGKGLEWIGYIKYSGRTNYNPSLKSRVTISRDTSKNQFSLKLSSVTAADTAVYYCASRGYWGQGTLVTVSS VL: DIVMTQTPLSLSVTPGQPASISCKSSQSLLDSDGKTFLYWYLQKPGQSPQLLIYLVSSRFSPDRFSGSGSGTDFTLKISRVEAEDVGVYYCWQGTHFPHTFGQGTKVEIKR", "values": [
      {"measurement": "binding result", "setting": "[1]", "result": "no binding (tested: 30 nM CotH3)"}
    ]},
    {"binder": "humanized variant LC2:Grafted HC (antibody, V domains shown) VH: QVQLQESGPGLVKPSETLSLTCTVSGDSITSGYWSWIRQPPGKGLEWIGYIKYSGRTNYNPSLKSRVTISVDTSKNQFSLKLSSVTAADTAVYYCASRGYWGQGTLVTVSS VL: DIVMTQTPLSLSVTPGQPASISCKSSQSLLDSDGKTFLNWLLQKPGQSPQLLIYLVSKLDSGVPDRFSGSGSGTDFTLKISRVEAEDVGVYYCWQGTHFPHTFGQGTKVEIKR", "values": [
      {"measurement": "binding result", "setting": "[1]", "result": "no binding (tested: 30 nM CotH3)"}
    ]},
    {"binder": "humanized variant LC3:Grafted HC (antibody, V domains shown) VH: QVQLQESGPGLVKPSETLSLTCTVSGDSITSGYWSWIRQPPGKGLEWIGYIKYSGRTNYNPSLKSRVTISVDTSKNQFSLKLSSVTAADTAVYYCASRGYWGQGTLVTVSS VL: DIVMTQTPLSLSVTPGQPASISCKSSQSLLDSDGKTFLNWLLQKPGQSPQRLIYLVSKLDSGVPDRFSGSGSGTDFTLKISRVEAEDVGVYYCWQGTHFPHTFGQGTKVEIKR", "values": [
      {"measurement": "binding result", "setting": "[1]", "result": "no binding (tested: 30 nM CotH3)"}
    ]},
    {"binder": "humanized variant LC1:HC1 (antibody, V domains shown) VH: QVQLQESGPGLVKPSETLSLTCTVSGDSITSGYWSWIRQPPGKGLEWIGYIKYSGRTNYNPSLKSRVTISRDTSKNQFSLKLSSVTAADTAVYYCASRGYWGQGTLVTVSS VL: DIVMTQTPLSLSVTPGQPASISCKSSQSLLDSDGKTFLYWYLQKPGQSPQLLIYLVSKLDSGVPDRFSGSGSGTDFTLKISRVEAEDVGVYYCWQGTHFPHTFGQGTKVEIKR", "values": [
      {"measurement": "binding result", "setting": "[1]", "result": "no binding (tested: 30 nM CotH3)"}
    ]},
    {"binder": "humanized anti-CotH3 antibody LC3:HC2 (antibody, human IgG1, kappa, V domains shown, also called L3:H2; IgG anti-CotH3-LC3HC2) VH: QVQLQESGPGLVKPSETLSLTCTVSGDSITSGYWSWIRQPPGKGLEHIGYIKYSGRTFYNPSLKSRVTISRDTSKNQFSLKLSSVTAADTAVYYCASRGYWGQGTLVTVSS VL: DIVMTQTPLSLSVTPGQPASISCKSSQSLLDSDGKTFLNWLLQKPGQSPQRLIYLVSKLDSGVPDRFSGSGSGTDFTLKISRVEAEDVGVYYCWQGTHFPHTFGQGTKVEIKR", "values": [
      {"measurement": "Mean: FITC-A", "setting": "[2]", "result": 21800},
      {"measurement": "Median: FITC-A", "setting": "[2]", "result": 20600},
      {"measurement": "Mean: FITC-A", "setting": "[3]", "result": 35900},
      {"measurement": "Median: FITC-A", "setting": "[3]", "result": 35900},
      {"measurement": "Mean: FITC-A", "setting": "[4]", "result": 43200},
      {"measurement": "Median: FITC-A", "setting": "[4]", "result": 37100},
      {"measurement": "Mean: FITC-A", "setting": "[5]", "result": 35600},
      {"measurement": "Median: FITC-A", "setting": "[5]", "result": 34900}
    ]},
    {"binder": "humanized anti-CotH3 antibody LC3:HC3 (antibody, human IgG1, kappa, also called VX01; L3:H3) heavy: not shown light: DIVMTQTPLSLSVTPGQPASISCKSSQSLLDSDGKTFLNWLLQKPGQSPQRLIYLVSKLDSGVPDRFSGSGSGTDFTLKISRVEAEDVGVYYCWQGTHFPHTFGQGTKVEIKRTVAAPSVFIFPPSDEQLKSGTASVVCLLNNFYPREAKVQWKVDNALQSGNSQESVTEQDSKDSTYSLSSTLTLSKADYEKHKVYACEVTHQGLSSPVTKSFNRGEC", "values": [
      {"measurement": "Mean: FITC-A", "setting": "[2]", "result": 18200},
      {"measurement": "Median: FITC-A", "setting": "[2]", "result": 17000},
      {"measurement": "Mean: FITC-A", "setting": "[3]", "result": 19800},
      {"measurement": "Median: FITC-A", "setting": "[3]", "result": 19900},
      {"measurement": "Mean: FITC-A", "setting": "[4]", "result": 22500},
      {"measurement": "Median: FITC-A", "setting": "[4]", "result": 18800},
      {"measurement": "Mean: FITC-A", "setting": "[5]", "result": 19300},
      {"measurement": "Median: FITC-A", "setting": "[5]", "result": 18900}
    ]},
    {"binder": "humanized anti-CotH3 antibody LC2:HC3 (antibody, human IgG1, kappa, V domains shown, also called L2:H3; IgG anti-CotH3-LC2HC3) VH: QVQLQESGPGLVKPSETLSLTCTVSGDSITSGYWNWIRQPPGKGLEHIGYIKYSGRTFYNPSLKSRVTISRDTSKNQFSLKLSSVTAADTAVYYCASRGYWGQGTLVTVSS VL: DIVMTQTPLSLSVTPGQPASISCKSSQSLLDSDGKTFLNWLLQKPGQSPQLLIYLVSKLDSGVPDRFSGSGSGTDFTLKISRVEAEDVGVYYCWQGTHFPHTFGQGTKVEIKR", "values": [
      {"measurement": "Mean: FITC-A", "setting": "[2]", "result": 28900},
      {"measurement": "Median: FITC-A", "setting": "[2]", "result": 27700},
      {"measurement": "Mean: FITC-A", "setting": "[3]", "result": 29000},
      {"measurement": "Median: FITC-A", "setting": "[3]", "result": 29000},
      {"measurement": "Mean: FITC-A", "setting": "[4]", "result": 40600},
      {"measurement": "Median: FITC-A", "setting": "[4]", "result": 36500},
      {"measurement": "Mean: FITC-A", "setting": "[5]", "result": 29800},
      {"measurement": "Median: FITC-A", "setting": "[5]", "result": 29200}
    ]},
    {"binder": "humanized variant LC3:HC1 (antibody, V domains shown) VH: QVQLQESGPGLVKPSETLSLTCTVSGDSITSGYWSWIRQPPGKGLEWIGYIKYSGRTNYNPSLKSRVTISRDTSKNQFSLKLSSVTAADTAVYYCASRGYWGQGTLVTVSS VL: DIVMTQTPLSLSVTPGQPASISCKSSQSLLDSDGKTFLNWLLQKPGQSPQRLIYLVSKLDSGVPDRFSGSGSGTDFTLKISRVEAEDVGVYYCWQGTHFPHTFGQGTKVEIKR", "values": [
      {"measurement": "binding result", "setting": "[1]", "result": "no binding (tested: 30 nM CotH3)"}
    ]},
    {"binder": "humanized variant LC1:HC2 (antibody, V domains shown) VH: QVQLQESGPGLVKPSETLSLTCTVSGDSITSGYWSWIRQPPGKGLEHIGYIKYSGRTFYNPSLKSRVTISRDTSKNQFSLKLSSVTAADTAVYYCASRGYWGQGTLVTVSS VL: DIVMTQTPLSLSVTPGQPASISCKSSQSLLDSDGKTFLYWYLQKPGQSPQLLIYLVSKLDSGVPDRFSGSGSGTDFTLKISRVEAEDVGVYYCWQGTHFPHTFGQGTKVEIKR", "values": [
      {"measurement": "binding result", "setting": "[1]", "result": "no binding (tested: 30 nM CotH3)"}
    ]},
    {"binder": "humanized variant LC1:HC3 (antibody, V domains shown) VH: QVQLQESGPGLVKPSETLSLTCTVSGDSITSGYWNWIRQPPGKGLEHIGYIKYSGRTFYNPSLKSRVTISRDTSKNQFSLKLSSVTAADTAVYYCASRGYWGQGTLVTVSS VL: DIVMTQTPLSLSVTPGQPASISCKSSQSLLDSDGKTFLYWYLQKPGQSPQLLIYLVSKLDSGVPDRFSGSGSGTDFTLKISRVEAEDVGVYYCWQGTHFPHTFGQGTKVEIKR", "values": [
      {"measurement": "binding result", "setting": "[1]", "result": "no binding (tested: 30 nM CotH3)"}
    ]},
    {"binder": "C2 Chimera 2 (C2 VH on human IgG1 constant region with AvantGen cloned variable kappa on human kappa constant region) (antibody, V domains shown, also called AvantGen LC-chimera) VH: DLQLQESGPSLVKPSQTLSLTCSVTGDSITSGYWNWIRKFPGNKLEHMGYIKYSGRTFYNPSLKSRVSITRDTSKNQYYLQLNSVTSEDTATYYCASRGYWGQGTTLTVSS VL: DVVMTQTPLSLSVTIGQPASISCKSSQSLLYSNGKTYLNWLQQRPGQAPKLLMFQVSKPGIPDRFSGSGSETDFTLKISRVEAEDLGVYYCLQGTYFPHTFGAGTKVEIKR", "values": [
      {"measurement": "Kd", "setting": "[6]", "result": 1.8, "unit": "nM"},
      {"measurement": "koff", "setting": "[6]", "result": 0.00111, "unit": "s⁻¹"},
      {"measurement": "kon", "setting": "[6]", "result": 627000, "unit": "M⁻¹ s⁻¹"},
      {"measurement": "fold improvement in affinity over the parental mouse mAb", "setting": "[7]", "result": 33, "unit": "fold"}
    ]}
  ]
}
